# Where two headings read alike, the source gives them in different places.
# T1: Activin A (UniProt P08476 311-426)
# T1 sequence (looked up): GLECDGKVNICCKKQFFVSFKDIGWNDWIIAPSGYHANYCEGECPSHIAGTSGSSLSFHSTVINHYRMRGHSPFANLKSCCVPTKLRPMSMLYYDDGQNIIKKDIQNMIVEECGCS
# T2: Activin B (UniProt P09529 293-407)
# T2 sequence (looked up): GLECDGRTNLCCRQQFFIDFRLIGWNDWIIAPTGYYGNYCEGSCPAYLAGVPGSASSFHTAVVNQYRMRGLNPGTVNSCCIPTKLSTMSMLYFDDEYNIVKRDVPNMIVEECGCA
# Columns and labels:
# GDF8 (myostatin) [1] = target: GDF8 (myostatin) (UniProt O14793); experiment: SPR (Biacore T200), GDF8 amine-coupled, FST-Fab as analyte, single-cycle kinetics
# Activin A [2] = target: T1, Activin A; experiment: SPR (Biacore T200), FST-Fab captured on anti-F(ab')2, Activin A as analyte, 1:1 model
# Protocol: (§1) The binding kinetics of the fusion proteins to various targets (see below) were determined by surface plasmon resonance using a Biacore T200 (Cytiva). For each type of assay, kinetic parameters were determined using a 1:1 binding model using Biacore T200 Evaluation software (version 3.0).
# (§2) For the assessment of binding to Activin A and Activin B (R&D Systems), a goat anti-human F(ab′)₂ fragment specific antibody (Jackson ImmunoResearch) was first immobilised on a CM5 Sensor Chip via amine coupling chemistry to a level of approximately 5000RU. Using a standard multi-cycle kinetic approach, each analysis cycle consisted of capture of FST-Fab to the anti-F(ab′)₂ surface followed by injection of analyte and finally surface regeneration using 60s injections of 50 mM HCl, and 5 mM NaOH. […] The binding response of a parallel blank surface was subtracted, and buffer blank injections were included to subtract instrument noise and drift.
# Activin B [3] = target: T2, Activin B; experiment: SPR (Biacore T200), FST-Fab captured on anti-F(ab')2, Activin B as analyte, 1:1 model
# Protocol: as §1, §2
# GDF8 (myostatin) [4] = target: T3, GDF8 (myostatin) (UniProt O14793 267-375); experiment: SPR (Biacore T200), GDF8 amine-coupled, FST-Fab as analyte, single-cycle kinetics
# Protocol: as §1
# (§3) For the assessment of binding to GDF8 and GDF11 (R&D Systems), each one of GDF8 and GDF11 was immobilised by amine coupling chemistry to the surface of a CM5 sensorchip to achieve an immobilisation level of approximately 250RU. For both GDF8 and GDF11, analysis was conducted using a single-cycle kinetics approach with sequential 180s injections of FST-Fab at increasing concentrations (0.8, 4, 20, 100 and 500 nM) in HBS-EP+ running buffer (Cytiva) at 25° C. at a flow rate of 30 μl/min, followed by monitoring the dissociation for 1800s. The binding response of a parallel blank surface was subtracted, and a series of buffer blank injections were conducted to subtract instrument noise and drift.
# GDF11 [5] = target: T4, GDF11 (UniProt O95390 299-407); experiment: cell-based or functional assay
# Activin B [6] = target: T2, Activin B; experiment: cell-based or functional assay
# GDF8 (myostatin) [7] = target: T3, GDF8 (myostatin); experiment: cell-based or functional assay
# Activin A [8] = target: T1, Activin A; experiment: cell-based or functional assay
# GDF11 [9] = target: T4, GDF11; experiment: SPR (Biacore T200), GDF11 amine-coupled, FST-Fab as analyte, single-cycle kinetics
# Protocol: as §1, §3
# GDF11 [10] = target: T4, GDF11; experiment: cell-based or functional assay; remark: listed apart in the source
# Activin B [11] = target: T2, Activin B; experiment: cell-based or functional assay; remark: listed apart in the source
# GDF8 (myostatin) [12] = target: T3, GDF8 (myostatin); experiment: cell-based or functional assay; remark: listed apart in the source
# Activin A [13] = target: T1, Activin A; experiment: cell-based or functional assay; remark: listed apart in the source
# Human Albumin = target: T5, Human Albumin (human, UniProt P02768 25-609); experiment: SPR (Biacore T200), fusion protein captured on anti-F(ab')2, albumin as analyte, 1:1 model
# T5 construct: Analyte in the Biacore albumin assay; also called human serum albumin; HSA
# Protocol: as §1
# For the assessment of binding to albumin: A goat anti-human F(ab′)2 fragment specific antibody (Jackson ImmunoResearch) was first immobilised on a CM5 Sensor Chip via amine coupling chemistry to a level of approximately 5000RU. Using a standard multi-cycle kinetic approach, each analysis cycle consisted of capture of the fusion protein to be tested to the anti-F(ab′)2 surface followed by injection of albumin and finally surface regeneration using 60s injections of 50 mM HCl, and 5 mM NaOH. […] The binding response of a parallel blank surface was subtracted and buffer blank injections were included to subtract instrument noise and drift.
# GDF11 [14] = target: T4, GDF11; experiment: cell-based or functional assay; remark: listed apart in the source
# Activin B [15] = target: T2, Activin B; experiment: cell-based or functional assay; remark: listed apart in the source
# GDF8 (myostatin) [16] = target: T3, GDF8 (myostatin); experiment: cell-based or functional assay; remark: listed apart in the source
# GDF11 [17] = target: T4, GDF11; experiment: cell-based or functional assay; remark: listed apart in the source
# Activin B [18] = target: T2, Activin B; experiment: cell-based or functional assay; remark: listed apart in the source
# GDF8 (myostatin) [19] = target: T3, GDF8 (myostatin); experiment: cell-based or functional assay; remark: listed apart in the source
# Activin A [20] = target: T1, Activin A; experiment: cell-based or functional assay; remark: listed apart in the source
# Activin A [21] = target: T1, Activin A; experiment: cell-based or functional assay; remark: listed apart in the source
Kd (GDF8 (myostatin) [1]) [nM],Kd (Activin A [2]) [nM],Kd (Activin B [3]) [nM],"IC50 (geomean), Smad2/3 reporter gene assay, HEK-Blue TGFb cells (GDF11 [5]) [nM]","IC50 (geomean), Smad2/3 reporter gene assay, HEK-Blue TGFb cells (Activin B [6]) [nM]","IC50 (geomean), Smad2/3 reporter gene assay, HEK-Blue TGFb cells (GDF8 (myostatin) [7]) [nM]","IC50 (geomean), Smad2/3 reporter gene assay, HEK-Blue TGFb cells (Activin A [8]) [nM]",IC50 (read off the curve) (GDF11 [14]) [nM],IC50 (read off the curve) (Activin B [15]) [nM],IC50 (read off the curve) (GDF8 (myostatin) [16]) [nM],Molecule,further results
,0.011,0.011,4.24,0.46,1.4,0.1,~2,~0.6,~1,"FST315HBM-Fab (other, paired with the Fab light chain; also called FST-Fab1; FST-Fab 1) heavy: GNCWLRQAKNGRCQVLYKTELSKEECCSTGRLSTSWTEEDVNDNTLFKWMIFNGGAPNCIPCKETCENVDCGPGKACRMNAANKPRCVCAPDCSNITWKGPVCGLDGKTYRNECALLKARCKEQPELEVQYQGRCKKTCRDVFCPGSSTCVVDQTNNAYCVTCNRICPEPASSEQYLCGNDGVTYSSACHLRKATCLLGRSIGLAYEGKCIKAKSCEDIQCTGGKKCLWDFKVGRGRCSLCDELCPDSKSDEPVCASDNATYASECAMKEAACSSGVLLEVKHSGSCNSISEDTEEEEEDEDQDYSFPISSILEWSGGGGSEVQLLESGGGLVQPGGSLRLSCAVSGIDLSNYAINWVRQAPGKGLEWIGIIWASGTTFYATWAKGRFTISRDNSKNTVYLQMNSLRAEDTAVYYCARTVPGYSTAPYFDLWGQGTLVTVSSASTKGPSVFPLAPSSKSTSGGTAALGCLVKDYFPEPVTVSWNSGALTSGVHTFPAVLQSSGLYSLSSVVTVPSSSLGTQTYICNVNHKPSNTKVDKKVEPKSC light: DIQMTQSPSSVSASVGDRVTITCQSSPSVWSNFLSWYQQKPGKAPKLLIYEASKLTSGVPSRFSGSGSGTDFTLTISSLQPEDFATYYCGGGYSSISDTTFGGGTKVEIKRTVAAPSVFIFPPSDEQLKSGTASVVCLLNNFYPREAKVQWKVDNALQSGNSQESVTEQDSKDSTYSLSSTLTLSKADYEKHKVYACEVTHQGLSSPVTKSFNRGEC","Kd (GDF8 (myostatin) [4]): 2.3 nM; Kd (GDF11 [9]): 1.25 nM; fold potency against the parent FST315WT, Smad2/3 reporter gene assay (GDF11 [10]): 2 fold; fold potency against the parent FST315WT, Smad2/3 reporter gene assay (Activin B [11]): 3 fold; fold potency against the parent FST315WT, Smad2/3 reporter gene assay (GDF8 (myostatin) [12]): 2 fold; fold potency against the parent FST315WT, Smad2/3 reporter gene assay (Activin A [13]): 3 fold; Kd (Human Albumin): 2.6 nM"
,,,8.37,1.57,3.08,0.31,~6,~2,~3,FST315WT (other) GNCWLRQAKNGRCQVLYKTELSKEECCSTGRLSTSWTEEDVNDNTLFKWMIFNGGAPNCIPCKETCENVDCGPGKKCRMNKKNKPRCVCAPDCSNITWKGPVCGLDGKTYRNECALLKARCKEQPELEVQYQGRCKKTCRDVFCPGSSTCVVDQTNNAYCVTCNRICPEPASSEQYLCGNDGVTYSSACHLRKATCLLGRSIGLAYEGKCIKAKSCEDIQCTGGKKCLWDFKVGRGRCSLCDELCPDSKSDEPVCASDNATYASECAMKEAACSSGVLLEVKHSGSCNSISEDTEEEEEDEDQDYSFPISSILEW,IC50 (read off the curve) (Activin A [21]): ~0.4 nM

# Second part, the molecule before the results:
Molecule,Kd (GDF8 (myostatin) [1]) [nM],Kd (Activin A [2]) [nM],Kd (Activin B [3]) [nM],"IC50 (geomean), Smad2/3 reporter gene assay, HEK-Blue TGFb cells (GDF11 [5]) [nM]","IC50 (geomean), Smad2/3 reporter gene assay, HEK-Blue TGFb cells (Activin B [6]) [nM]","IC50 (geomean), Smad2/3 reporter gene assay, HEK-Blue TGFb cells (GDF8 (myostatin) [7]) [nM]","IC50 (geomean), Smad2/3 reporter gene assay, HEK-Blue TGFb cells (Activin A [8]) [nM]",IC50 (read off the curve) (GDF11 [14]) [nM],IC50 (read off the curve) (Activin B [15]) [nM],IC50 (read off the curve) (GDF8 (myostatin) [16]) [nM],further results
FST288-Fab,0.24,0.032,0.071,,,,,,,,
FST315-Fab,0.15,0.2,0.069,,,,,,,,
FST288WT (other) GNCWLRQAKNGRCQVLYKTELSKEECCSTGRLSTSWTEEDVNDNTLFKWMIFNGGAPNCIPCKETCENVDCGPGKKCRMNKKNKPRCVCAPDCSNITWKGPVCGLDGKTYRNECALLKARCKEQPELEVQYQGRCKKTCRDVFCPGSSTCVVDQTNNAYCVTCNRICPEPASSEQYLCGNDGVTYSSACHLRKATCLLGRSIGLAYEGKCIKAKSCEDIQCTGGKKCLWDFKVGRGRCSLCDELCPDSKSDEPVCASDNATYASECAMKEAACSSGVLLEVKHSGSCN,,,,0.77,0.45,0.73,0.14,,,,IC50 (read off the curve) (GDF11 [17]): ~2 nM; IC50 (read off the curve) (Activin B [18]): ~0.5 nM; IC50 (read off the curve) (GDF8 (myostatin) [19]): ~2 nM; IC50 (read off the curve) (Activin A [20]): ~0.4 nM

# Reference: patent US20260049126A1 (UCB, published 2026)
